B1: ISOP121GR5P1G7 (designed binder, not shown: small tags and cut ends)
chain: LPAPKNLVVSRVTEDSARLSWTAPDAAFDSFHIRYHEYDKNGEAIQLYVPGSERSYDLTGLKPGTEYGVYIHGVKGGGRSKPLWAHFTT
notes: FN3 domain; E. coli lysate in the ELISA
B2: ISOP194GR9P1E9 (designed binder, not shown: small tags and cut ends)
chain: LPAPKNLVVSRVTEDSARLSWTAPDAAFDSFHIRYHEYDKNGEAIQLYVPGSERSYDLTGLKPGTEYGVFIWGVKGGLKSKPLWAWFTT
notes: as for B1
B3: ISOP121AR5P1A8 (designed binder, not shown: small tags and cut ends)
chain: LPAPKNLVVSRVTEDSARLSWGLEWAYQFFDSFLIQYQESEKVGEAIVLTVPGSERSYDLTGLKPGTEYTVSIYGVYLRAIEFYSNPLSAIFTT
notes: as for B1
B4: ISOP121BR5P1B5 (designed binder, not shown: small tags and cut ends)
chain: LPAPKNLVVSRVTEDSARLSWRKQEQYFDSFLIQYQESEKVGEAIVLTVPGSERSYDLTGLKPGTEYTVSIYGVYQRGYHNWFSNPLSAIFTT
notes: as for B1
B5: ISOP121BR5P1A2 (designed binder, not shown: small tags and cut ends)
chain: LPAPKNLVVSRVTEDSARLSWRFSQEWFDSFLIQYQESEKVGEAIVLTVPGSERSYDLTGLKPGTEYTVSIYGVYARGIHKWLSNPLSAIFTT
notes: as for B1
B6: ISOP121BR5P1C6 (designed binder, not shown: small tags and cut ends)
chain: LPAPKNLVVSRVTEDSARLSWRKQEQYFDSFLIQYQESEKVGEAIVLTVPGSERSYDLTGLKPGTEYTVSIYGVYSRPKAEFTSNPLSAIFTT
notes: as for B1
B7: ISOP121BR5P1E7 (designed binder, not shown: small tags and cut ends)
chain: LPAPKNLVVSRVTEDSARLSWRKQEQYFDSFLIQYQESEKVGEAIVLTVPGSERSYDLTGLKPGTEYTVSIYGVKKWPSTTTTSNPLSAIFTT
notes: as for B1
B8: ISOP121BR5P1C5 (designed binder, not shown: small tags and cut ends)
chain: LPAPKNLVVSRVTEDSARLSWFRLRIVQTFDSFLIQYQESEKVGEAIVLTVPGSERSYDLTGLKPGTEYTVSIYGVITVVELLQQSNPLSAIFTT
notes: as for B1
B9: ISOP121FR5P1H8 (designed binder, not shown: small tags and cut ends)
chain: LPAPKNLVVSRVTEDSARLSWTAPDAAFDSFVIYYSEQHFYGEAIVLTVPGSERSYDLTGLKPGTEYVVKIYGVKGGETSKPLSAIFTT
notes: as for B1
B10: ISOP121GR5P1D2 (designed binder, not shown: small tags and cut ends)
chain: LPAPKNLVVSRVTEDSARLSWTAPDAAFDSFHILYQERAQSGEAIGLVVPGSERSYDLTGLKPATEYSVQIFGVKGGKLSNPLWAWFTT
notes: as for B1
B11: ISOP121AR5P1H2 (designed binder, not shown: small tags and cut ends)
chain: LPAPKNLVVSRVTEDSARLSWVIDEFIPLFDSFLIQYQESEKVGEAIVLTVPGSERSYDLTGLKPGTEYTVSIYGVLAKNIGISNPLSAIFTT
notes: as for B1
B12: ISOP121GR5P1F10 (designed binder, not shown: small tags and cut ends)
chain: LPAPKNLVVSRVTEDSARLSWTAPDAAFDSFFIDYVERATVGEAIALNVPGSKRSYALTGLKPGTEYFVKIRGVKGGLKSKPLWAWFTT
notes: as for B1
B13: ISOP121GR5P1F7 (designed binder, not shown: small tags and cut ends)
chain: LPAPKNLVVSRVTEDSARLSWTAPDAAFDSFGINYVERASEGEAIDLGVPGSERSYDLTGLKPGTEYFVKIFGVKGGIPSVPLWAWFTT
notes: as for B1
B14: ISOP121AR5P1B8 (designed binder, not shown: small tags and cut ends)
chain: LPAPKNLVISRVTEDSARLSWDKRTQFAFDSFLIQYQESEKVGEAIVLTVPGSERSYDLTGLKPGTEYTVSIYGVPTWSGRTQSNPLSAIFTT
notes: as for B1
B15: ISOP121GR5P1D7 (designed binder, not shown: small tags and cut ends)
chain: LPAPKNLVVSRVTEDSARLSWTAPDAAFDSFKIWYQERSIVGEAIFLLVPGSERSYDLTGLKPGTEYIVQIFGVKGGPYSNPLWAPFTT
notes: as for B1
B16: ISOP121BR5P1G3 (designed binder, not shown: small tags and cut ends)
chain: LPAPKNLVVSRVTEDSARLSWKQRTSFHFDSFLIQYQESEKVGEAIVLTVPGSERSYDLTGLKPGTEYTVSIYGVPFWQQWQPESNPLSAIFTT
notes: as for B1
B17: ISOP121AR5P1C5 (designed binder, not shown: small tags and cut ends)
chain: LPAPKNLVVSRVTEDSARLSWKRSDDEWFDSFLIQYQESEKVGEAIILTVPGSERSYDLTGLKPGTEYTVSIYGVYQRAALWFSNPLSAIFTT
notes: as for B1
B18: ISOP194AR9P1E3 (designed binder, not shown: small tags and cut ends)
chain: LPAPKNLVVSRVTEDSARLSWKRSDDEWFDSFLIQYQESEKVGEAIVLTVPGSERSYDLTGLKPGTEYTVSIYGVYQRAALWFSNPLSAIFTT
notes: as for B1
B19: ISOP121BR5P1D7 (designed binder, not shown: small tags and cut ends)
chain: LPAPKNLGCFSRYRRLSRLSWETPYPSLSNFDSFLIQYQESEKVGEAIVLTVPGSERSYDLTGLKPGTEYTVSIYGVLKLSAAWWPSNPLSAIFTT
notes: as for B1
B20: ISOP194HR9P1D11 (designed binder, not shown: small tags and cut ends)
chain: LPAPKNLVVSRVTEDSARLSWTAPDAAFDSFSILYGELIGDGEAIVLTVPGSERSYDLTGLKPGTEYTVYIFGVKGGRYSRPLSAIFTT
notes: as for B1
B21: ISOP121FR5P1H9 (designed binder, not shown: small tags and cut ends)
chain: LPAPKNLVVSRVTEDSARLSWTAPDAAFDSFSILYGETAPIGEAIVLTVPGSERSYDLTGLKPGTEYVVYIQGVKGGNYSQPLSAIFTT
notes: as for B1
B22: ISOP121HR5P1F2 (designed binder, not shown: small tags and cut ends)
chain: LPAPKNLVVSRVTEDSARLSWTAPDAAFDSFTILYGETYSGGEAIVLTVPGSERSYDLTGLKPGTEYVVYIFGVKGGKWSRPLSAIFTT
notes: as for B1
B23: ISOP194HR9P1B2 (designed binder, not shown: small tags and cut ends)
chain: LPAPKNLVVSRVTEDSARLSWTAPDAAFDSFSILYGELIGDGEAIVLTVPGSERSYDLTGLKPGSEYTVYIFGVKGGRYSRPLSAIFTT
notes: as for B1
B24: ISOP121AR5P1A10 (designed binder, not shown: small tags and cut ends)
chain: LPAPKNLVVSRVTEDSARLSWPDWSNSEYFDSFLIQYQESEKVGEAIVLTVPGSERSYDLTGLKPGTEYTVSIYGVYARHRLFVSNPLSAIFTT
notes: as for B1
B25: ISOP194AR9P1G7 (designed binder, not shown: small tags and cut ends)
chain: LPAPKNLVVSRVTEDSARLSWGDDFNSEYFDSFLIQYQESEKVGEAIVLTVPGSERSYDLTGLKPGTEYTVSIYGVYTRAVVFTSNPLSAIFTT
notes: as for B1
B26: ISOP121AR5P1H1 (designed binder, not shown: small tags and cut ends)
chain: LPAPKNLVVSRVTEDSARLSWKQATKFVFDSFLIQYQESEKVGEAIVLTVPGSERSYDLTGLKPGTEYTVSIYGVPDWFVLESNPLSAIFTT
notes: as for B1
B27: ISOP121AR5P1E11 (designed binder, not shown: small tags and cut ends)
chain: LPAPKNLVVSRVTEDSARLSWSVQTSFVFDSFLIQYQESEKVGEAIVLTVPGSERSYDLTGLKPGTEYTVSIYGVPLWHGFDSNPLSAIFTT
notes: as for B1
B28: ISOP121BR5P1D10 (designed binder, not shown: small tags and cut ends)
chain: LPAPKNLVVSRVTEDSARLSWGKKSHFFDSFLIQYQESEKVGEAIVLTVPGSERSYDLTGLKPGTEYTVSIYGVYTRGQCEWESNQLSAIFFTT
notes: as for B1
B29: ISOP121BR5P1F10 (designed binder, not shown: small tags and cut ends)
chain: LPAPKNLVVSRVTEDSARLSWPLNLEYFDSFLIQYQESEKVGEAIVLTVPGSERSYDLTGLKPGTEYTVSIYGVYGRYGGPFVSNPLSAIFTT
notes: as for B1
B30: ISOP194BR9P1A5 (designed binder, not shown: small tags and cut ends)
chain: LPAPKNLVVSRVTEDSARLSWFNADEEYFDSFLIQYQESEKVGEAIVLTVPGSERSYDLTGLKPGTEYTVSIYGVYQRGYHNWFSNPLSAIFTT
notes: as for B1

Tests used:
Assay in all cases: ELISA, lysate on plate-bound antigen
[1] = target: T1, recombinant biotinylated PD-L1 (rhPD-L1/Fc Chimera, R&D Systems 156-B7) (human, UniProt Q9NZQ7 19-238, biotinylated (sites not given))
T1 construct: Bought Fc chimera; also called human PD-L1
Method: Streptavidin-coated Maxisorp plates (Nunc catalog 436110) were blocked for 1 h in Starting Block T20 (Pierce) and then coated with biotinylated PD-L1 (using same antigen as in panning) or negative controls (an unrelated Fc-fused recombinant protein and human serum albumin) for 1 h. Plates were rinsed with TBST and diluted lysate was applied to plates for 1 h. Following additional rinses, wells were treated with HRP-conjugated anti-FN3 domain antibody (PAB25) for 1 h and then assayed with POD (Roche catalog 11582950001).

[2] = target: unrelated Fc-fused recombinant protein
[3] = target: human serum albumin (human) (UniProt P02768)
human serum albumin (human), sequence (P02768 25-609 limits assumed): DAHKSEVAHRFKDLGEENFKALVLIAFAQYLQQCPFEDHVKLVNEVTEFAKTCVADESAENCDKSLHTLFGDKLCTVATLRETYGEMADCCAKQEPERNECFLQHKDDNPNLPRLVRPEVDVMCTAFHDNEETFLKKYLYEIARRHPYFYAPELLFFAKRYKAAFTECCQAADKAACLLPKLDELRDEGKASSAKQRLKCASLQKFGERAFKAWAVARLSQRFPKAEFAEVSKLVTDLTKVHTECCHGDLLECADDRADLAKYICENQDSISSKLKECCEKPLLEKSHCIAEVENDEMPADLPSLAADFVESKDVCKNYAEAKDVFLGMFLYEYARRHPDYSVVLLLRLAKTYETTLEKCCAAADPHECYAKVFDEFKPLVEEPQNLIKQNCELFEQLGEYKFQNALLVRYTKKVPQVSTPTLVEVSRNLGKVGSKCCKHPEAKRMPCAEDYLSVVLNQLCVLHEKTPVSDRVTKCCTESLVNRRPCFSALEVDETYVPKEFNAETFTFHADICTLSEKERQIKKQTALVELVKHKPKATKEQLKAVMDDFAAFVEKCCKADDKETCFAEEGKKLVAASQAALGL

T1 sequence (Q9NZQ7 19-238, change not shown): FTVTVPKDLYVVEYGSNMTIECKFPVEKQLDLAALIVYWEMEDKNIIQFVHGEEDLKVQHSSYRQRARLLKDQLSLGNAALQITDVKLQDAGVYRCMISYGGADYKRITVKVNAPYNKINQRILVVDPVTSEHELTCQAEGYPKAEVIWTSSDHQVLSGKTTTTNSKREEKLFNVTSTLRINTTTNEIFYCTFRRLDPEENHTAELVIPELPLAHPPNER

Row | Binder | ELISA PD-L1 Fc (RSU) [1] | ELISA Fc Control (RSU) [2] | ELISA HSA (RSU) [3]
1 | B1 | 368000 RSU | 800 RSU | 800 RSU
2 | B2 | 2.82e+06 RSU | 720 RSU | 1200 RSU
3 | B3 | 516000 RSU | 560 RSU | 1040 RSU
4 | B4 | 1.48e+06 RSU | 720 RSU | 400 RSU
5 | B5 | 743000 RSU | 720 RSU | 800 RSU
6 | B6 | 13400 RSU | 720 RSU | 720 RSU
7 | B7 | 412000 RSU | 800 RSU | 640 RSU
8 | B8 | 11700 RSU | 400 RSU | 720 RSU
9 | B9 | 431000 RSU | 560 RSU | 640 RSU
10 | B10 | 513000 RSU | 720 RSU | 640 RSU
11 | B11 | 927000 RSU | 880 RSU | 1120 RSU
12 | B12 | 577000 RSU | 640 RSU | 640 RSU
13 | B13 | 697000 RSU | 640 RSU | 720 RSU
14 | B14 | 592000 RSU | 640 RSU | 560 RSU
15 | B15 | 792000 RSU | 720 RSU | 720 RSU
16 | B16 | 771000 RSU | 560 RSU | 640 RSU
17 | B17 | 732000 RSU | 640 RSU | 560 RSU
18 | B18 | 4.57e+06 RSU | 1120 RSU | 800 RSU
19 | B19 | 12800 RSU | 800 RSU | 720 RSU
20 | B20 | 6.62e+06 RSU | 480 RSU | 1680 RSU
21 | B21 | 1.2e+06 RSU | 720 RSU | 880 RSU
22 | B22 | 907000 RSU | 480 RSU | 640 RSU
23 | B23 | 5.66e+06 RSU | 400 RSU | 1840 RSU
24 | B24 | 789000 RSU | 1120 RSU | 560 RSU
25 | B25 | 1.59e+07 RSU | 1280 RSU | 560 RSU
26 | B26 | 1.48e+06 RSU | 880 RSU | 880 RSU
27 | B27 | 1.84e+06 RSU | 720 RSU | 720 RSU
28 | B28 | 1.54e+06 RSU | 480 RSU | 880 RSU
29 | B29 | 1.42e+06 RSU | 560 RSU | 720 RSU
30 | B30 | 3.18e+06 RSU | 800 RSU | 1280 RSU
